Residue numbers refer to the chain shown, from its start.
B1: ePGDM13 (antibody, V domains shown)
VH: QAQLVQSGPEVRKPGTSVKVSCKNPGNTLTTYDLHWVRQVPGQGLQWMGWISHEGDKKVIVERFKAKVTIDWDRSTNTAYLQLSGLTSEDTAVYYCAKGSKHRLRDYALYDEDGALNWAVDVDYLANLEFWGQGTAVTVSS
VL: DIVLTQSPLSLSVTPGESASISCKSSHSLQHGDRNNYLAWYVQKPGRSPQLLLDLASERASGVPDRFSGSGSEKDFTLKISRVETEDVGTYYCMQGRESPWTFGQGTKVDIK
B2: ePGDM5 (antibody, V domains shown)
VH: B1 VH
VL: B1 VL with I2F, S26D, L53I, E73R, S81D, T85A
B3: ePGDM9 (antibody, V domains shown)
VH: B1 VH
VL: B1 VL with H27Q, Q30I, L53I, E73R
B4: PGDM1400 (antibody, V domains shown)
VH: B1 VH with A2V, Q3H, V5T, N24A, T30K, Q39S, E89G, E112D, A126S
VL: B1 VL with I2F, L9H, Q30I, L53I, D54Y, E58S, E73D

Molecular target: HIV Env of isolate 3301.v1.c24 (clade AC) (HIV)
Assay: cell-based or functional assay

Binder | IC50 (µg/ml) with constrains [µg/mL] | IC80 (µg/ml) with constrains [µg/mL]
B1 | 0.057 | 0.228
B2 | 0.043 | 0.174
B3 | 0.021 | 0.084
B4 | 0.131 | 0.523

Molecular target: HIV Env of isolate Du172.17 (clade C) (HIV)
Assay: cell-based or functional assay

Binder | IC50 (µg/ml) with constrains [µg/mL]
B1 | 1.5
B2 | 1.49
B3 | 0.865
B4 | 5.42

Molecular target: HIV Env of isolate R2184.c04 (clade AE) (HIV)
Assay: cell-based or functional assay

Binder | IC50 (µg/ml) with constrains [µg/mL] | IC80 (µg/ml) with constrains [µg/mL]
B1 | 0.005 | 0.019
B2 | 0.004 | 0.017
B3 | 0.003 | 0.011
B4 | 0.006 | 0.022

Molecular target: HIV Env of isolate 6811.v7.c18 (clade CD) (HIV)
Assay: cell-based or functional assay

Binder | IC50 (µg/ml) with constrains [µg/mL]
B1 | > 100
B2 | > 100
B3 | > 100
B4 | > 100

Molecular target: HIV Env of isolate Q461.e2 (clade A) (HIV)
Assay: cell-based or functional assay

Binder | IC50 (µg/ml) with constrains [µg/mL] | IC80 (µg/ml) with constrains [µg/mL]
B1 | 0.132 | 0.528
B2 | 0.104 | 0.415
B3 | 0.06 | 0.24
B4 | 0.143 | 0.572

Molecular target: HIV Env of isolate CNE30 (clade BC) (HIV)
Assay: cell-based or functional assay

Binder | IC50 (µg/ml) with constrains [µg/mL]
B1 | > 100
B2 | > 100
B3 | > 100
B4 | > 100

Molecular target: HIV Env of isolate 9004SS_A3_4 (clade A) (HIV)
Assay: cell-based or functional assay

Binder | IC50 (µg/ml) with constrains [µg/mL] | IC80 (µg/ml) with constrains [µg/mL]
B1 | > 100 | > 100
B2 | > 100 | > 100
B3 | > 100 | > 100
B4 | > 100 | > 100

Molecular target: HIV Env of isolate C4118.c09 (clade AE) (HIV)
Assay: cell-based or functional assay

Binder | IC50 (µg/ml) with constrains [µg/mL] | IC80 (µg/ml) with constrains [µg/mL]
B1 | 0.001 | 0.005
B2 |  | 0.002
B3 | 0.001 | 0.005
B4 | 0.002 | 0.006

Molecular target: HIV Env of isolate 191955_A11 (clade A) (HIV)
Assay: cell-based or functional assay

Binder | IC50 (µg/ml) with constrains [µg/mL] | IC80 (µg/ml) with constrains [µg/mL]
B1 | 0.008 | 0.033
B2 | 0.021 | 0.083
B3 | 0.007 | 0.029
B4 | 0.013 | 0.05

Molecular target: HIV Env of isolate 6240_08_TA5_4622 (clade B) (HIV)
Assay: cell-based or functional assay

Binder | IC50 (µg/ml) with constrains [µg/mL]
B1 | 3.16
B2 | 2.02
B3 | 1.65
B4 | 52.4

Molecular target: HIV Env of isolate 191084B7-19 (clade A) (HIV)
Assay: cell-based or functional assay

Binder | IC50 (µg/ml) with constrains [µg/mL] | IC80 (µg/ml) with constrains [µg/mL]
B1 | 0.001 | 0.003
B2 | 0.001 | 0.005
B3 | 0.002 | 0.006
B4 | 0.002 | 0.008

Molecular target: HIV Env of isolate Ce2060_G9 (clade C) (HIV)
Assay: cell-based or functional assay

Binder | IC50 (µg/ml) with constrains [µg/mL]
B1 | 0.018
B2 | 0.011
B3 | 0.134
B4 | 0.025

Molecular target: HIV Env of isolate Du422.1 (clade C) (HIV)
Assay: cell-based or functional assay

Binder | IC50 (µg/ml) with constrains [µg/mL]
B1 | 27.5
B2 | 8.64
B3 | 13.3
B4 | 33.4

Molecular target: HIV Env of isolate R3265.c06 (clade AE) (HIV)
Assay: cell-based or functional assay

Binder | IC50 (µg/ml) with constrains [µg/mL] | IC80 (µg/ml) with constrains [µg/mL]
B1 | 0.026 | 0.104
B2 | 0.028 | 0.113
B3 | 0.019 | 0.078
B4 | 0.019 | 0.075

Molecular target: HIV Env of isolate BJOX009000.02.4 (clade AE) (HIV)
Assay: cell-based or functional assay

Binder | IC50 (µg/ml) with constrains [µg/mL] | IC80 (µg/ml) with constrains [µg/mL]
B1 | 0.265 | 1.06
B2 | 0.296 | 1.18
B3 | 0.234 | 0.936
B4 | 1.1 | 4.42

Molecular target: HIV Env of isolate Ce0682_E4 (clade C) (HIV)
Assay: cell-based or functional assay

Binder | IC50 (µg/ml) with constrains [µg/mL]
B1 | 0.011
B2 | 0.005
B3 | 0.005
B4 | 0.009

Molecular target: HIV Env of isolate MS208.A1 (clade A) (HIV)
Assay: cell-based or functional assay

Binder | IC50 (µg/ml) with constrains [µg/mL] | IC80 (µg/ml) with constrains [µg/mL]
B1 | 0.027 | 0.109
B2 | 0.007 | 0.029
B3 | 0.009 | 0.036
B4 | 0.01 | 0.041

Molecular target: HIV Env of isolate T278-50 (clade AG) (HIV)
Assay: cell-based or functional assay

Binder | IC50 (µg/ml) with constrains [µg/mL]
B1 | 1.6
B2 | 1.06
B3 | 0.506
B4 | 5.41

Molecular target: HIV Env of isolate 3817.v2.c59 (clade CD) (HIV)
Assay: cell-based or functional assay

Binder | IC50 (µg/ml) with constrains [µg/mL]
B1 | 14
B2 | 0.232
B3 | 0.16
B4 | > 100

Molecular target: HIV Env of isolate CAAN5342.A2 (clade B) (HIV)
Assay: cell-based or functional assay

Binder | IC50 (µg/ml) with constrains [µg/mL]
B1 | 40.2
B2 | 73
B3 | 17.5
B4 | > 100

Molecular target: HIV Env of isolate HIV-0013095-2.11 (clade C) (HIV)
Assay: cell-based or functional assay

Binder | IC50 (µg/ml) with constrains [µg/mL]
B1 | > 100
B2 | > 100
B3 | > 100
B4 | > 100

Molecular target: HIV Env of isolate Ce704809221_1B3 (clade C) (HIV)
Assay: cell-based or functional assay

Binder | IC50 (µg/ml) with constrains [µg/mL]
B1 | 0.339
B2 | 0.187
B3 | 0.135
B4 | 0.32

Molecular target: HIV Env of isolate WITO4160.33 (clade B) (HIV)
Assay: cell-based or functional assay

Binder | IC50 (µg/ml) with constrains [µg/mL]
B1 | 0.003
B2 | 0.004
B3 | 0.002
B4 | 0.003

Molecular target: HIV Env of isolate CAP210.2.00.E8 (clade C) (HIV)
Assay: cell-based or functional assay

Binder | IC50 (µg/ml) with constrains [µg/mL]
B1 | 0.135
B2 | 0.057
B3 | 0.055
B4 | 0.33

Molecular target: HIV Env of isolate HIV-16845-2.22 (clade C) (HIV)
Assay: cell-based or functional assay

Binder | IC50 (µg/ml) with constrains [µg/mL]
B1 | > 100
B2 | > 100
B3 | > 100
B4 | > 100

Molecular target: HIV Env of isolate CNE19 (clade BC) (HIV)
Assay: cell-based or functional assay

Binder | IC50 (µg/ml) with constrains [µg/mL]
B1 | 0.003
B2 | 0.003
B3 | 0.003
B4 | 0.005

Molecular target: HIV Env of isolate TRJO4551.58 (clade B) (HIV)
Assay: cell-based or functional assay

Binder | IC50 (µg/ml) with constrains [µg/mL]
B1 | > 100
B2 | > 100
B3 | > 100
B4 | > 100

Molecular target: HIV Env of isolate A07412M1.vrc12 (clade D) (HIV)
Assay: cell-based or functional assay

Binder | IC50 (µg/ml) with constrains [µg/mL]
B1 | 0.029
B2 | 0.009
B3 | 0.026
B4 | 0.029

From US20230134571A1 (INTERNATIONAL AIDS VACCINE INITIATIVE, published 2023)
